This is an account of results in patent EP4725955A1, “PEPTIDE TARGETING C-MET, PHARMACEUTICAL COMPOSITION COMPRISING SAID PEPTIDE AND USE THEREOF” (Nanjing Anji Biotechnology Co., Ltd., priority 2023, dated 2025).

Converted amounts (≈) assume the structure as drawn. Where a SMILES comes first, the peptide text is derived from it. Where no end group is shown, it is not given here. The star is where a group is joined. Paclitaxel(2'-O-succinyl) = CC(=O)O[C@H]1C(=O)[C@@]2(C)[C@H]([C@H](OC(=O)c3ccccc3)[C@]3(O)C[C@H](OC(=O)[C@H](OC(=O)CCC(=O)*)[C@@H](NC(=O)c4ccccc4)c4ccccc4)C(C)=C1C3(C)C)[C@]1(OC(C)=O)CO[C@@H]1C[C@@H]2O; FITC = O=C1OC2(c3ccc(O)cc3Oc3cc(O)ccc32)c2ccc(NC(=S)*)cc21; Acp = not defined here

The conditions of series [1]: literature values; cited from earlier work.
Series [2] is described as follows: Solubility of drug and drug-peptide conjugate in water (supersaturated solution, HPLC standard curve). Format: physicochemical. As to the method:
The peak areas of the series standard solutions were detected via HPLC (mobile phase: 0.065% TFA water + 0.05% TFA; chromatographic column: YMC-TriartC18; wavelength: 220 nm), so as to construct a concentration-peak area standard curve, as shown in FIG. 13. In FIG. 13, the horizontal axis represents the concentration, and the longitudinal axis represents the peak area.
The peak area of the sample was detected via HPLC, and the solubility value of the sample in water was calculated by the concentration-peak area standard curve. Table 5 Solubility Value of Sample in Water

For series [3], the target named is c-Met positive cell MKN-45 (Homo sapiens, UniProt P08581). Kind of series: Flow cytometry detection of binding of FITC-labelled peptide to c-Met positive cell MKN-45. It counts as cell-based. The note with it: for binding affinity to c-Met positive cell MKN45 compared with P1-AI: alanine scanning, FITC-labelled peptides 10 µM to 0.625 µM, FIG. 12; for affinity to c-Met positive cell MKN45 relative to CM7-1: comparison of EC50 with CM7-1, FITC-labelled peptides tested; for binding to c-Met positive cell MKN45, dose dependence: different peptide concentrations, flow cytometry. As to the method: MKN 45 cells cultured in a 1640 culture solution (Nanjing Senbeijia Biotechnology Co., Ltd.) were collected, and washed twice with pre-cooled PBS. 1 mL of 1% BSA solution was added into the washed cells, and then the above mixed system was placed on a rotary mixer (Lichen Technology Co., Ltd.) and incubated for 30 min at 4°C. Different concentrations of FITC-P1-AI, FITC-CM7-1, FITC-CM7-1.1, FITC-CM7-1.2, FITC-CM7-1.3, FITC-CM7-1.4, FITC-CM7-1.5 and FITC-CM7-1.6 peptide solutions were respectively added in the dark to obtain multiple groups, and then the mixtures were placed on the rotary mixer and incubated for 1 h at 4°C in the dark. After the incubation was completed, the mixed system of the cells was centrifuged for 5 min at 800 rpm, and then supernatant was discarded. The cells were washed twice with pre-cooled PBS, and the concentration of the cells was adjusted to 1×10^6 cells/mL using PBS. 3 parallel replicate wells were set up for cells in each group, with 0.5 mL prepared per sample; and a flow cytometer was used to detect the binding of the peptide to c-Met positive cell MKN-45, EC50 data and a binding curve were generated. […] Table 2 Binding affinity of peptide to MKN-45
MKN-45 cells cultured in a 1640 culture solution were collected, and washed twice with pre-cooled PBS 1 mL of 1% BSA solution was added into the washed cells, and then the above mixed system was placed on a rotary mixer and incubated for 30-60 min at 4°C. 10 µM of FITC-P1-AI peptide solution and FITC-CM7-1 were respectively added in the dark to form two groups, and the above mixed systems were placed on the rotary mixer and incubated for 1 h at 4°C in the dark. After the incubation was completed, the mixed system of the cells was centrifuged for 5 min at 800 rpm, and then supernatant was discarded. The cells were washed 1-2 times with pre-cooled PBS, and then the concentration of the washed cells was adjusted to 1×10^6 cells/mL by using PBS. 3 parallel replicate wells were set up for cells in each group, with 0.5 mL prepared per sample; and a flow cytometer was used to detect the binding of the peptide to c-Met positive cells.
The MKN-45 cells cultured in a 1640 culture solution were collected, and washed twice with pre-cooled PBS. […] After the incubation was completed, the mixed system of the cells was centrifuged for 5 min at 800 rpm, and then supernatant was discarded. The cells were washed 1-2 times with pre-cooled PBS, and then the concentration of the washed cells was adjusted to 1×10^6 cells/mL by using PBS. 3 parallel replicate wells were set up for cells in each group, with 0.5 mL prepared per sample; and a flow cytometer was used to detect the binding of the peptide to the c-Met positive cell MKN-45. […] Table 4 Sequences of Peptides

For series [4], the system named is MKN-45 subcutaneous xenograft tumor. The experiment in a line: Living imaging of tissue distribution in MKN-45 subcutaneous xenograft tumor mice. Format: in vivo, nude mice. The conditions noted are these: 5 mg/kg via tail vein, tumor about 400 mm^3, FIG. 11. As to the method:
In MKN-45 subcutaneous xenograft tumor mice (nude mice were purchased from Changzhou Kavens Laboratory Animal Co., Ltd), 5X10^6 MKN45 cells were subcutaneously implanted into nude mice; and when the volume of the tumor was about 400 mm^3, 5 mg/kg Cy5-P1-AI was injected via a tail vein, and its tissue distribution was analyzed using a living imaging instrument. […] In the figure, a circle area is a tumor site.

The nature of series [5]: Solubility detection of peptide in ultrapure water (visual). It counts as physicochemical. As to the method:
13.4 mg of CM7-1 and 15 mg of P1-AI were respectively weighed and dissolved using ultrapure (UP) water (prepared using Youpu Pure Water/Ultrapure Water Manufacturing System (UPR-II-10T)).

Series [6] concerns human hepatic stellate cell LX-2. The experiment in a line: Specificity: flow cytometry binding of peptide to LX-2 cells that barely express c-Met. Format: cell-based. The note with it: concentration of up to 10 µM, cells barely expressing c-Met, FIG. 8. As to the method: Human hepatic stellate cells LX-2 cultured in a 1640 culture solution were collected, and washed twice with pre-cooled PBS. 1 mL of 1% BSA solution was added into the washed cells, and then the above mixed system were placed on a rotary mixer and incubated for 30 min at 4°C. 10 µM of FITC-P1-AI peptide solution and FITC-CM7-1 were respectively added in the dark to form two groups, and the above mixed systems were placed on the rotary mixer and incubated for 1 h at 4°C in the dark. After the incubation was completed, the mixed system of the cells was centrifuged for 5 min at 800 rpm, and then supernatant was discarded. The cells were washed twice with pre-cooled PBS, and the concentration of the cells was adjusted to 1×10^6 cells/mL using PBS. 3 parallel replicate wells were set up at concentrations of 1 µM, 5 µM and 10 µM for cells in each group, with 0.5 mL prepared per sample; and a flow cytometer was used to detect the binding of the peptide to LX-2 cells.

Series [7] deals with T1, c-Met on c-Met positive human gastric cancer cell MKN-45 (human, UniProt P08581 25-1390).
T1 construct: whole, on cells; also called hepatocyte growth factor receptor; HGFR
The experiment in a line: flow cytometry, FITC-peptide on c-Met positive MKN-45 cells.

In the next series the target is c-Met protein (UniProt P08581 25-932, limits assumed). Kind of series: microscale thermophoresis (MST), FITC-peptide with titrated c-Met protein.
The target of series [8] is T1, c-Met on c-Met positive human gastric …. The experiment in a line: flow cytometry, FITC-peptide (0.625-10 µM) on MKN-45 cells.

Chain of c-Met protein (P08581 25-932 limits assumed): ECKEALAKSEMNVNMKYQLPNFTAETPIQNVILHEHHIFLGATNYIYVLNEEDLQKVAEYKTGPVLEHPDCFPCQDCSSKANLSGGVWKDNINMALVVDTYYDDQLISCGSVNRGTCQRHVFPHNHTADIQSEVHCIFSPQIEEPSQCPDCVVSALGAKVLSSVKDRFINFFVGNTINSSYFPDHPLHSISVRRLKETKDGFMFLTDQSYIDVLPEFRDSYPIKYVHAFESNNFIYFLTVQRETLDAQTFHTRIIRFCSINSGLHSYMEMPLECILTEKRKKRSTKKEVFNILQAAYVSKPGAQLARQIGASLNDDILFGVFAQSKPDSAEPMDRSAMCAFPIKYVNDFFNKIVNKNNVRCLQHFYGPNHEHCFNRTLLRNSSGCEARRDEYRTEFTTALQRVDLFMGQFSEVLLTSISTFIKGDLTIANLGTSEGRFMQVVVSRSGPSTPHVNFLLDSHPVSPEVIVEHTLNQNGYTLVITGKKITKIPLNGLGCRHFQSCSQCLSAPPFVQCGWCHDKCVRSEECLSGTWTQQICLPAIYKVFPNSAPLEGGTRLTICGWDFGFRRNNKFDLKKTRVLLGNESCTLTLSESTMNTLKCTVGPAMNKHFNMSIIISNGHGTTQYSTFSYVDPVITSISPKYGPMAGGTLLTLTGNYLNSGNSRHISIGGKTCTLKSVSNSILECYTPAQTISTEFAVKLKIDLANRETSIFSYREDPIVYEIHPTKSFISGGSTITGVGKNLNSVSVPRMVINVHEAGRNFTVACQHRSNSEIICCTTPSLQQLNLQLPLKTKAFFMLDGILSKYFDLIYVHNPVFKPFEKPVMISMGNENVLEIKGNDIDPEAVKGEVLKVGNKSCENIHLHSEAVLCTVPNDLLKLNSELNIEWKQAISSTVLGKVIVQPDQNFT
Chain of c-Met positive cell MKN-45 (P08581 25-1390): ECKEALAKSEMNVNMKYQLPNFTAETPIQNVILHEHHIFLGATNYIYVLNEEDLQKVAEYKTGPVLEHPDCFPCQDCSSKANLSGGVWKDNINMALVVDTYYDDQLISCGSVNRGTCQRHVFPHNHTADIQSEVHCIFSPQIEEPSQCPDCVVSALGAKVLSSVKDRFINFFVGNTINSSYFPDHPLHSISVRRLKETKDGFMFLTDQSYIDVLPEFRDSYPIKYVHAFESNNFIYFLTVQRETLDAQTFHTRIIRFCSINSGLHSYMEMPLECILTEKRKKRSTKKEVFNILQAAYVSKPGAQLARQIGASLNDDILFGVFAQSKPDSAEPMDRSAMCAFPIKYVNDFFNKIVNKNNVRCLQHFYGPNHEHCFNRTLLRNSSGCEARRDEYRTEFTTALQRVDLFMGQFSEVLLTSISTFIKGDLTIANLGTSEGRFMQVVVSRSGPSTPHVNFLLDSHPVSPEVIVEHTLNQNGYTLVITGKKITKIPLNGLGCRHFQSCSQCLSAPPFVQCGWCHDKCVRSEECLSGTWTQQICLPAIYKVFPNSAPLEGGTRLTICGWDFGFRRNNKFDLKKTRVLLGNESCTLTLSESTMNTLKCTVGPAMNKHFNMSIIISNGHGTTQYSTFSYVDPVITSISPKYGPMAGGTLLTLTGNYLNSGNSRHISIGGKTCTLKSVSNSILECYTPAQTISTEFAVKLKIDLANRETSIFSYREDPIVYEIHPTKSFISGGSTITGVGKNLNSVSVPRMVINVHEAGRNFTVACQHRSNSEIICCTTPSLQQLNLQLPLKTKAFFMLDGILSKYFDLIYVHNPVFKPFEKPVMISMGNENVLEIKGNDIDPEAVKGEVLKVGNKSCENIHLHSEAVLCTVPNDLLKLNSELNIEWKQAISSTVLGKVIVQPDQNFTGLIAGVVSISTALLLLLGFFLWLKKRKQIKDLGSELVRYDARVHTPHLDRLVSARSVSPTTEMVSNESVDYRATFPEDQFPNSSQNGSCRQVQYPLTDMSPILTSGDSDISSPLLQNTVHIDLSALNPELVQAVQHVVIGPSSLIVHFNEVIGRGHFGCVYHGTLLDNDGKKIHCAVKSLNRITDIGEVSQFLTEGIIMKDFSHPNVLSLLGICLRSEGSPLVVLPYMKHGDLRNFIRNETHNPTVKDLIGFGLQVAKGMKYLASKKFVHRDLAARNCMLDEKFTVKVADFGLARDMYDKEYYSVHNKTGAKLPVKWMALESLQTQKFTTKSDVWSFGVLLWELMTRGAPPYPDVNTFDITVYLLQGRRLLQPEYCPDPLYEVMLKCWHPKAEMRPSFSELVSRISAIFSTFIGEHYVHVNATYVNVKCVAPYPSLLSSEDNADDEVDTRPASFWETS
T1 sequence (P08581 25-1390): as above

With `CCc1c2c(nc3ccc(OCC(=O)N4CCCCC4)cc13)-c1cc3c(c(=O)n1C2)COC(=O)[C@]3(O)CC` [7-ethyl-10-[2-oxo-2-(piperidinyl)ethoxy]camptothecin], the solubility in water entry in series [1] is on record as “about 6.22 µg/mL”.

For the molecule `CC[C@@]1(O)C(=O)OCc2c1cc1n(c2=O)Cc2cc3ccccc3nc2-1` [CPT, camptothecin], the concentration in solution in [2] (thermodynamic from solid) (solubility at 15 min) came to 0.084 µg/mL (≈ 0.241 µM). Take `CC(=O)O[C@@]12CO[C@@H]1C[C@H](O)[C@@]1(C)C(=O)[C@H](O)C3=C(C)[C@@H](OC(=O)[C@H](OC(=O)CCC(=O)N[C@@H](CCCNC(=N)N)C(=O)N[C@@H](CO)C(=O)N4CCC[C@H]4C(=O)N[C@@H](Cc4ccc(O)cc4)C(=O)N[C@@H](C)C(=O)N[C@@H](CC(N)=O)C(=O)N[C@@H](CO)C(=O)O)[C@@H](NC(=O)OC(C)(C)C)c4ccccc4)C[C@@](O)([C@@H](OC(=O)c4ccccc4)[C@H]21)C3(C)C` [DOC-P1-AI]: in series [2], the “Solubility increasing fold of drug-peptide conjugate compared with drug” value is recorded as 1.62×10^5 fold. On the same count and under the same terms, the same measure for `CC(=O)O[C@H]1C(=O)[C@@]2(C)[C@H]([C@H](OC(=O)c3ccccc3)[C@]3(O)C[C@H](OC(=O)[C@H](OC(=O)CCC(=O)N[C@@H](CCCNC(=N)N)C(=O)N[C@@H](CO)C(=O)N4CCC[C@H]4C(=O)N[C@@H](Cc4ccc(O)cc4)C(=O)N[C@@H](C)C(=O)N[C@@H](CC(N)=O)C(=O)N[C@@H](CO)C(=O)O)[C@@H](NC(=O)c4ccccc4)c4ccccc4)C(C)=C1C3(C)C)[C@]1(OC(C)=O)CO[C@@H]1C[C@@H]2O` [PTX-P1-AI] ({Paclitaxel(2'-O-succinyl)}-RSPYANS-OH; N-terminus assumed): 46.33 fold. Consider ASPYANS [P1-AI-1], for which the “binding affinity to c-Met positive cell MKN45 compared with P1-AI” value (“binding affinity … compared with P1-AI” below) in [3] is “reduced”.

Regarding Cy5-RSPYANS [Cy5-P1-AI], the “tissue distribution by living imaging” value in series [4] was “enriched in cancer sites highly expressing c-Met”.

Regarding DAIIANN [CM7-1.2], in series [3], the “affinity to c-Met positive cell MKN45 relative to CM7-1” value is on record as “significantly increased affinity” and the “binding to c-Met positive cell MKN45, dose dependence” value was “dose-dependent”.

For DQAIANN [CM7-1.3], in series [3], the “affinity to c-Met positive cell MKN45 relative to CM7-1” value is listed as “significantly increased affinity” and the “binding to c-Met positive cell MKN45, dose dependence” value is recorded as “dose-dependent”. For the molecule DQIAANN [CM7-1.4], the “affinity to c-Met positive cell MKN45 relative to CM7-1” value in series [3] was “increased affinity”. On to DQIIANA [CM7-1.6], for which the “affinity to c-Met positive cell MKN45 relative to CM7-1” value in series [3] is given as “increased affinity”. As to “DQIIANN [CM7-1, DQIIANN, reference compound]”, the state in water result in series [5] (concentration 6 mM) is reported as “completely cloudy state”. In the case of “FITC-RSPYANS (not fully specified; FITC label) [FITC-P1-AI]”, in series [6], the “binding to LX-2 cells” value is on record as “barely binds”. For RAPYANS [P1-AI-2], the “binding affinity … compared with P1-AI” value in series [3] is listed as “reduced”.

For RSAYANS [P1-AI-3], the “binding affinity … compared with P1-AI” value in [3] was “reduced”. Take RSPAANS [P1-AI-4]: the “binding affinity … compared with P1-AI” value in series [3] is “increased binding affinity”. Moreover, the “binding affinity to c-Met compared with CM7-1” value in series [3] (conclusion of Example 9) is given as “superior”.

With RSPYANS [P1-AI, RSPYANS], the state in water result in series [5] (concentration 19 mM) was “clear solution”.

B1: FITC-CM7-1 (FITC-DQIIANN) (peptide)
peptide: {FITC}-DQIIANN
notes: tested as the FITC-labelled form; Molecular weight 1289.36
Regarding B1, the EC50 in [7] worked out at 9500 nM. Moreover, in the series with c-Met protein, the dissociation constant (Kd) turned out to be 1270 nM.

B2: FITC-CM7-1.5 (FITC-DQIIAAN) (peptide)
peptide: {FITC}-DQIIAAN
notes: Alanine variant of CM7-1 at position 6
For B2, the EC50 in [7] worked out at 15200 nM.

B3: FITC-CM7-1.2 (FITC-DAIIANN) (peptide)
peptide: {FITC}-DAIIANN
notes: Alanine variant of CM7-1 at position 2
For B3, a half-maximal response in [7] (EC50) required 1880 nM.

B4: FITC-CM7-1.3 (FITC-DQAIANN) (peptide)
peptide: {FITC}-DQAIANN
notes: Alanine variant of CM7-1 at position 3
In the case of B4, the EC50 in [7] was found to be 45.6 nM.

B5: FITC-CM7-1.4 (FITC-DQIAANN) (peptide)
peptide: {FITC}-DQIAANN
notes: Alanine variant of CM7-1 at position 4
Take B5: it took 5370 nM to reach a half-maximal effect in series [7] (EC50).

B6: FITC-CM7-1.1 (FITC-AQIIANN) (peptide)
peptide: {FITC}-AQIIANN
notes: Alanine variant of CM7-1 at position 1
Molecule B6 showed an EC50 in series [7] of 2070 nM.

B7: FITC-CM7-1.6 (FITC-DQIIANA) (peptide)
peptide: {FITC}-DQIIANA
notes: Alanine variant of CM7-1 at position 7
In series [7], B7 yielded an EC50 of 5050 nM.

B8: FITC-P1-AI (FITC-RSPYANS) (peptide)
peptide: {FITC-Acp}-RSPYANS
modifications: reading uncertain
notes: Synthetic 7-mer made by solid-phase synthesis; Molecular weight 1296.36
With B8, in the series with c-Met protein, the Kd was found to be 41.1 nM and the “fold increase of affinity against CM7-1” value came out at 30.9 fold.

B9: FITC-P1-AI-3 (FITC-RSAYANS) (peptide)
peptide: {FITC}-RSAYANS
notes: Alanine variant of P1-AI at position 3
For B9, the binding result in series [8] is given as “binds”.

B10: FITC-P1-AI-1 (FITC-ASPYANS) (peptide)
peptide: {FITC}-ASPYANS
notes: Alanine variant of P1-AI at position 1
On to B10, for which, in [8], the binding result was “binds”.

B11: FITC-P1-AI-2 (FITC-RAPYANS) (peptide)
peptide: {FITC}-RAPYANS
notes: Alanine variant of P1-AI at position 2
B11: the binding result in [8] is recorded as “binds”.

B12: FITC-P1-AI-4 (FITC-RSPAANS) (peptide)
peptide: {FITC}-RSPAANS
notes: Alanine variant of P1-AI at position 4
Consider B12, for which the binding result in series [8] is recorded as “binds”.

B13: FITC-P1-AI-6 (FITC-RSPYAAS) (peptide)
peptide: {FITC}-RSPYAAS
notes: Alanine variant of P1-AI at position 6; also called P1-Al-6
For the molecule B13, the binding result in [8] is listed as “binds”.
